What is called Kd is a measure of binding affinity in units of concentration. Low values mean tighter binding, high ones weaker binding.

Among the data in patent US20180127480A1 are Kd values, retold here.

Test [1] has as its target biotinylated human SIRPα allele 1 domain 1 (a1d1) (human) (UniProt P78324). Nature of the test: SPR, Biacore T100, biotinylated SIRPα on SA chip, 25 C, 1:1 Langmuir model. (In SPR one partner is held on a chip, and binding of the other changes the refractive index at the surface.)
Test [2] addresses biotinylated human SIRPα allele 2 domain 1 (a2d1) (human) (UniProt P78324). The test is described as above.

Chain of biotinylated human SIRPα allele 2 domain 1 (a2d1) (human) (P78324 other isoform, or with tags, fused parts or gaps): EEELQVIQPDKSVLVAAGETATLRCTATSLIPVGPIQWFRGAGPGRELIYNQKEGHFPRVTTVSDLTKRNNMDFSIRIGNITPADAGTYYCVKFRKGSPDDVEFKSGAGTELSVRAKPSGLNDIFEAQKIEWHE
Chain of biotinylated human SIRPα allele 1 domain 1 (a1d1) (human) (P78324 other isoform, or with tags, fused parts or gaps): as above

B1: high affinity CD47 variant N363 C15G (designed binder)
chain: WQLPLLFNKTKSVEFTFGNDTVVIPCFVTNMEAQNTTEVYVKWKFKGRDIYTFDGDKNKSTVPTDFSSAKIEVSQLLKGDASLKMDKSDAVSHTGNYTCEVTELTREGETIIELKYRVVSHHHHHHHH
Regarding B1, the equilibrium dissociation constant (Kd) in test [1] is 0.296 nM; in test [2] it was 1.1 nM.
